# Source: PMC7897678 (Frontiers in Immunology, 2020)
# Molecular target: T1, C1q isolated from mouse serum (mouse, UniProt P98086 23-245; P14106 26-253; Q02105 30-246)
# T1 construct: complement C1q subcomponent chain A (C1qA), mouse; complement C1q subcomponent chain B (C1qB), mouse; complement C1q subcomponent chain C (C1qC), mouse; also called purified C1q; copies: 6 + 6 + 6
# Experiment: ELISA; NP1, NP2 or PTX3 coated (10 µg/ml in PBS, overnight 4 °C), blocked with 4% BSA in PBS-T; C1q 5.6–45 µg/ml in PBS, 1 h at RT; bound C1q detected with anti-C1qb antibody
# Settings: both partners purified
# T1 sequence (P98086 23-245, chain 1 of 3): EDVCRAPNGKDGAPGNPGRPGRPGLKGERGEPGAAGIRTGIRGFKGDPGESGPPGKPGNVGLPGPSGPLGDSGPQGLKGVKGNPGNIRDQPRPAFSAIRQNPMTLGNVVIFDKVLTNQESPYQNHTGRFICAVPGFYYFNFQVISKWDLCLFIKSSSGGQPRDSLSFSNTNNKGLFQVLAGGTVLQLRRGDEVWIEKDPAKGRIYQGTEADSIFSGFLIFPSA
# T1 sequence (P14106 26-253, chain 2 of 3): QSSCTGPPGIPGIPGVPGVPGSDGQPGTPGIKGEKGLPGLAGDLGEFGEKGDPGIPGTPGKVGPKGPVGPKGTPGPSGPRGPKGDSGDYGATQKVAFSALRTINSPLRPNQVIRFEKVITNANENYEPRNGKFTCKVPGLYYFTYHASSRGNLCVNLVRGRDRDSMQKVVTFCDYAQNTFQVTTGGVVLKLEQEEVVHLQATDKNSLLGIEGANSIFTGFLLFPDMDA
# T1 sequence (Q02105 30-246, chain 3 of 3): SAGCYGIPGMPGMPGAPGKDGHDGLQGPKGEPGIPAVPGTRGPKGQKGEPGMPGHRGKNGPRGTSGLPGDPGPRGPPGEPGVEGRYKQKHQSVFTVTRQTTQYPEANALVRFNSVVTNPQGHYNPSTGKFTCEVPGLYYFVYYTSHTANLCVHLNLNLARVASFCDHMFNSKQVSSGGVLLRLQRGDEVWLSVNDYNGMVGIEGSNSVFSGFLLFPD
row,binding result,Binder
1,binds,"Recombinant human His-tagged neuronal pentraxin 1 (natural protein, UniProt Q15818 23-432, looked up, neuronal pentraxin 1 (NP1), human, recombinant; see the vendor's data sheet; also called NP1; NPs (with NP2); source: bought: R&D Systems (7707-NP-050)) QDFGPTRFICTSVPVDADMCAASVAAGGAEELRSSVLQLRETVLQQKETILSQKETIRELTAKLGRCESQSTLDPGAGEARAGGGRKQPGSGKNTMGDLSRTPAAETLSQLGQTLQSLKTRLENLEQYSRLNSSSQTNSLKDLLQSKIDELERQVLSRVNTLEEGKGGPRNDTEERVKIETALTSLHQRISELEKGQKDNRPGDKFQLTFPLRTNYMYAKVKKSLPEMYAFTVCMWLKSSATPGVGTPFSYAVPGQANELVLIEWGNNPMEILINDKVAKLPFVINDGKWHHICVTWTTRDGVWEAYQDGTQGGSGENLAPYHPIKPQGVLVLGQEQDTLGGGFDATQAFVGELAHFNIWDRKLTPGEVYNLATCSTKALSGNVIAWAESHIEIYGGATKWTFEACRQIN"
2,binds,"Recombinant human His-tagged neuronal pentraxin 2 (natural protein, UniProt P47972 16-431, looked up, neuronal pentraxin 2 (NP2), human, recombinant; see the vendor's data sheet; also called NP2; NPs (with NP1); source: bought: R&D Systems (7816-NP-050)) GAQDSPAPGSRFVCTALPPEAVHAGCPLPAMPMQGGAQSPEEELRAAVLQLRETVVQQKETLGAQREAIRELTGKLARCEGLAGGKARGAGATGKDTMGDLPRDPGHVVEQLSRSLQTLKDRLESLEHQLRANVSNAGLPGDFREVLQQRLGELERQLLRKVAELEDEKSLLHNETSAHRQKTESTLNALLQRVTELERGNSAFKSPDAFKVSLPLRTNYLYGKIKKTLPELYAFTICLWLRSSASPGIGTPFSYAVPGQANEIVLIEWGNNPIELLINDKVAQLPLFVSDGKWHHICVTWTTRDGMWEAFQDGEKLGTGENLAPWHPIKPGGVLILGQEQDTVGGRFDATQAFVGELSQFNIWDRVLRAQEIVNIANCSTNMPGNIIPWVDNNVDVFGGASKWPVETCEERLLDL"
